{"source": "paper PMC10570040", "key": {"[1]": {"target": "T1, EnfR wild-type (TON_1525) (Thermococcus onnurineus NA1, UniProt B6YTS4 1-146)", "T1 sequence": "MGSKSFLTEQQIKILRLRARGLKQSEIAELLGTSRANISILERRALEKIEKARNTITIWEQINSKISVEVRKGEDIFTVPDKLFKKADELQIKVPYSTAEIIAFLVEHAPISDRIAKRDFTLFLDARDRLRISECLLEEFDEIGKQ", "experiment": "ITC; 25 C; N = 0.94; EMSA: 10 mM Tris pH 7.4, 200 mM KCl, 2 mM DTT, 0.2 mM EDTA, 37 C 20 min; ITC: 10 mM Tris-HCl pH 7.4, 200 mM KCl, 1 mM TCEP, 0.2 mM EDTA, 25 C; footprint: 20 mM", "conditions": "protein: recombinant; tags: C-terminal His6, non-cleavable; chain copies: 2; blunt"}, "EnfR T55I": {"target": "T2, EnfR T55I (Thermococcus onnurineus NA1, UniProt B6YTS4 1-146, T55I)", "T2 sequence": "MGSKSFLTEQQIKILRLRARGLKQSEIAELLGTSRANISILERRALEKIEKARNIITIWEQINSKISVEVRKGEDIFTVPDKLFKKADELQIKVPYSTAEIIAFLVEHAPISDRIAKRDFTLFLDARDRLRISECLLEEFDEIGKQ", "experiment": "ITC; 25 C; N = 0.80; EMSA: 10 mM Tris pH 7.4, 200 mM KCl, 2 mM DTT, 0.2 mM EDTA, 37 C 20 min; ITC: 10 mM Tris-HCl pH 7.4, 200 mM KCl, 1 mM TCEP, 0.2 mM EDTA, 25 C; footprint: 20 mM", "conditions": "protein: recombinant; tags: C-terminal His6, non-cleavable; chain copies: 2; blunt"}, "EnfR R44A": {"target": "T3, EnfR R44A (Thermococcus onnurineus NA1, UniProt B6YTS4 1-146, R44A)", "T3 sequence": "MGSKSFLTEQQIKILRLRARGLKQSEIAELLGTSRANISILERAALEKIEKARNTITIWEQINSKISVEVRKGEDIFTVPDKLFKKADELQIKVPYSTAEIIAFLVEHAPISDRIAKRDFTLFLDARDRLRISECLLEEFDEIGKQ", "experiment": "EMSA; seemed to lose binding; EMSA: 10 mM Tris pH 7.4, 200 mM KCl, 2 mM DTT, 0.2 mM EDTA, 37 C 20 min; ITC: 10 mM Tris-HCl pH 7.4, 200 mM KCl, 1 mM TCEP, 0.2 mM EDTA, 25 C; footprint: 20 mM", "conditions": "protein: recombinant; tags: C-terminal His6, non-cleavable; chain copies: 2; label: 5'-Cy5; blunt"}}, "data": [{"binder": "36-bp target, unlabelled (ITC) (dsDNA) DNA 1: CCATCTTAAAATCTTTTTGTTTACATTATACGAGGT DNA 2: ACCTCGTATAATGTAAACAAAAAGATTTTAAGATGG", "values": [{"measurement": "Kd", "setting": "[1]", "value": "61.8 ± 20.5", "unit": "nM"}, {"measurement": "Kd", "setting": "EnfR T55I", "value": "948 ± 130", "unit": "nM"}]}, {"binder": "36-bp target, Cy5 (dsDNA) DNA 1: CCATCTTAAAATCTTTTTGTTTACATTATACGAGGT DNA 2: ACCTCGTATAATGTAAACAAAAAGATTTTAAGATGG", "values": [{"measurement": "binding result", "setting": "EnfR R44A", "value": "no binding"}]}]}
